Results published in US20160122742A1 (published 2016).

Columns and labels:
[1] = molecular target: T1, human ORC1 with C-terminal Flag-HA tag (human, UniProt Q13415 1-861); experiment: TAP-TAG (tandem Flag/HA immunoprecipitation from HeLa S3 nuclear extract), silver staining and mass spectrometry
T1 construct: Stably expressed in HeLa S3 cells; also called ORC1 FLAG-HA; FLAG-HA tagged ORC1; not shown: in-frame C-terminal Flag-HA tag of pOZ-FH-C
T1 sequence: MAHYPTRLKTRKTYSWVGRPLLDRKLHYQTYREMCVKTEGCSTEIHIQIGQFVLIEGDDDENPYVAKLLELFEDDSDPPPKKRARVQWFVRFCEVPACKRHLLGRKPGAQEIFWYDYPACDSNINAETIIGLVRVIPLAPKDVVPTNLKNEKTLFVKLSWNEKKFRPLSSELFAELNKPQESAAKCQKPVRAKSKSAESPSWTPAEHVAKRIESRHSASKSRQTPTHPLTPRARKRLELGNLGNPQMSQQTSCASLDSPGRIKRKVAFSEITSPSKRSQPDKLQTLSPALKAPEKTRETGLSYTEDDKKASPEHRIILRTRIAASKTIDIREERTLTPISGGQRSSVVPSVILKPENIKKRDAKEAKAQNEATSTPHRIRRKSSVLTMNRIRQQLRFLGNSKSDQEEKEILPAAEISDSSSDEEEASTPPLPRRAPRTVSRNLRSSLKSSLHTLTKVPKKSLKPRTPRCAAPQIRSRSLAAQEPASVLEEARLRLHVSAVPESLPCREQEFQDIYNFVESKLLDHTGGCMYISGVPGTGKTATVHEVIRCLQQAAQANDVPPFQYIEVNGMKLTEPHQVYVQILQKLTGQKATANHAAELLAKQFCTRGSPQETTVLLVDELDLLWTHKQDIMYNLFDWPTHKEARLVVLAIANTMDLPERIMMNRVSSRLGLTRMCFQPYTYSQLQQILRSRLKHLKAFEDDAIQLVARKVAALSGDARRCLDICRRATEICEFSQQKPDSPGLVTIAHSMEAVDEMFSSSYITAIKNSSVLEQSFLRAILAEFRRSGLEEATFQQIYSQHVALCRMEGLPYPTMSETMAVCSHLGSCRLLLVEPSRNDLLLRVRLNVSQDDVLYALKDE
Method: The beads were washed twice with 1 mL of HA-IP Buffer (150 mM KCl; 20 mM Tris pH 7.5 0.05% NP40; 0.1% Tween; 10% Glycerol; 5 mM MgCl₂; 1 mM DTT and 10 mM PMSF). After the last centrifugation, beads were resuspended in HA-IP Buffer (1 vol of Beads). Extracts were incubated with Flag beads for 4 h with agitation at 4 C. Beads were pelleted (3 min at 3000 rpm 4° C.). Beads were washed 5 times with HA IP Buffer: Beads are pelleted (3K 3 min 4° C.) and the supernatant discarded. Complexes were eluted from the beads by incubating in 3 beads volume of HA IP Buffer supplemented with Flag peptide (200 μg/mL, Sigma) for 1 hour at 4 C with agitation. The supernatant was kept on ice and a second elution was conducted. The eluates were pooled and subjected to an anti-HA immunoprecipitation. Before, anti-HA coupled agarose beads (SantaCruz Biotechnology) were washed with glycine buffer as described above. 10 μL of beads was used per IP. Flag eluates were incubated with anti-HA beads for 2 hours at 4 C with agitation. Beads were pelleted (3 min at 3000 rpm 4° C.). Beads were washed 5 times with HA IP Buffer: Beads are pelleted (3K 3 min 4° C.) and the supernatant discarded. Complexes were eluted from the beads by incubating in 3 beads volume of HA IP Buffer supplemented with HA peptide (400 μg/mL, Roche) for 1 hour at 4 C with agitation. The supernatant was keep on ice and a second elution was conducted. […]

[2] = molecular target: T2, Flag tagged ORC1 (N-terminal Flag, pCS2-Flag)
T2 chain: T1 sequence

[3] = molecular target: T3, Flag tagged ORC3, Q9UBD5
T3 chain: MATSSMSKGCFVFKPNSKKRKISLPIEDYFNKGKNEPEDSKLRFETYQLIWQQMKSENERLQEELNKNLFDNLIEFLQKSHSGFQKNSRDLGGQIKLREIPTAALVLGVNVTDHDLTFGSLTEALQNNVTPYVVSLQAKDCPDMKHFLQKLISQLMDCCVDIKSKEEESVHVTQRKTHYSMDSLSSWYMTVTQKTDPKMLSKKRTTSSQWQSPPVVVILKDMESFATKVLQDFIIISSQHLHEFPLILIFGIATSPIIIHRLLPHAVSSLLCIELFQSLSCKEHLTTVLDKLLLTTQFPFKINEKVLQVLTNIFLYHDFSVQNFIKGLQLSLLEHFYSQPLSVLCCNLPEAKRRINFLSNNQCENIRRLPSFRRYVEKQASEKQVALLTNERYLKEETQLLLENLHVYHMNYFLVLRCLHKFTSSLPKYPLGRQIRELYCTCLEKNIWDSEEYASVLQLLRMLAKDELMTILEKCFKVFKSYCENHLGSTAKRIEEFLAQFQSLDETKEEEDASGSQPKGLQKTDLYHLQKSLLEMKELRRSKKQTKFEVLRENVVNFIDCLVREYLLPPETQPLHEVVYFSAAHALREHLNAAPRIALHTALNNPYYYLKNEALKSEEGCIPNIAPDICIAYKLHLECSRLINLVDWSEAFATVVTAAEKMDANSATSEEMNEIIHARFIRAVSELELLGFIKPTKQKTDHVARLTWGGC

[4] = molecular target: T4, Flag tagged ORC5, O43913
T4 chain: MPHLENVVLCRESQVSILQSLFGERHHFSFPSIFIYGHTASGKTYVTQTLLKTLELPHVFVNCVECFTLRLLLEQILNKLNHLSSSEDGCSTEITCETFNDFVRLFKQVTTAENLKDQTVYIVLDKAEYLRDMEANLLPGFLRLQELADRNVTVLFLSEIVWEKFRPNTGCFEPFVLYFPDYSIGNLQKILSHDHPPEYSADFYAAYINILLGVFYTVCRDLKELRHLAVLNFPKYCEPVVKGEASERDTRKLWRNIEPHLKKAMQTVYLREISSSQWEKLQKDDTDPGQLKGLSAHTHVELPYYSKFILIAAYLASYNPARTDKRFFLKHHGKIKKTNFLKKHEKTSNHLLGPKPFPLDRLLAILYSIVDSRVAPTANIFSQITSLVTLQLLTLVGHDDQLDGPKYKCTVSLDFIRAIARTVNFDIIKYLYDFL

[5] = molecular target: T5, Flag tagged ORC1 (N-terminal Flag, pCS2-Flag) (human, UniProt Q13415 1-861); experiment: anti-Flag co-immunoprecipitation from U2OS cells, western blot with anti-Myc
T5 construct: Transiently expressed in U2OS cells; also called Flag-ORC1
T5 sequence: T1 sequence
Method: For cell lysis, immunoprecipitation and western blotting were performed following standard methods. Briefly, cells were lysed in TK300 lysis buffer (20 mM Tris-HCl pH 7.9; 300 mM KCl, 5 mM MgCl2, 10% glycerol; 0.5% NP-40 plus protease inhibitors cocktail) on ice for 30 min. The protein concentration of the clarified lysates was estimated using the BCA method (Pierce). For immunoprecipitation experiments, equivalent amounts of protein samples were incubated at 4° C. with anti-Flag coupled agarose beads (Sigma Aldrich) for 4 h. After extensive washing with TK300 lysis buffer, bound proteins were eluted in boiling Laemmli buffer. Samples were runs on pre-cast gradient gel (NuPage Novex, Invitrogen and Mini-PROTEAN TGX, Biorad) and transferred to nitrocellulose membrane.
U20S cells were transiently transfected with plasmids coding for Myc-tagged WT Obi1 or mutated Obi1, and also co-transfected with plasmids coding for Flag-ORC1. 48 hours post-transfection, cells were lyzed and the soluble fraction was subjected to an anti-Flag immunoprecipitation (IP:Flag—FIG. 24B). Ectopic proteins were detected by western blotting. Under these conditions, specific Obi1/ORC1 complex is detected in the immunoprecipitate. In contrast, no association is observed between ORC1 and the mutated Obi1 protein (FIG. 24B).

B1: ORC Ubiquitin-ligase 1 (OBI1), human, endogenous protein of the cells (enzyme)
chain: MAQTVQNVTLSLTLPITCHICLGKVRQPVICINNHVFCSICIDLWLKNNSQCPACRVPITPENPCKEIIGGTSESEPMLSHTVRKHLRKTRLELLHKEYEDEIDCLQKEVEELKSKNLSLESQIKTILDPLTLVQGNQNEDKHLVTDNPSKINPETVAEWKKKLRTANEIYEKVKDDVDKLKEANKKLKLENGGLVRENLRLKAEVDNRSPQKFGRFAVAALQSKVEQYERETNRLKKALERSDKYIEELESQVAQLKNSSEEKEAMNSICQTALSADGKGSKGSEEDVVSKNQGDSARKQPGSSTSSSSHLAKPSSSRLCDTSSARQESTSKADLNCSKNKDLYQEQVEVMLDVTDTSMDTYLEREWGNKPSDCVPYKDEELYDLPAPCTPLSLSCLQLSTPENRESSVVQAGGSKKHSNHLRKLVFDDFCDSSNVSNKDSSEDDISRSENEKKSECFSSPKTGFWDCCSTSYAQNLDFESSEGNTIANSVGEISSKLSEKSGLCLSKRLNSIRSFEMNRTRTSSEASMDAAYLDKISELDSMMSESDNSKSPCNNGFKSLDLDGLSKSSQGSEFLEEPDKLEEKTELNLSKGSLTNDQLENGSEWKPTSFFLLSPSDQEMNEDFSLHSSSCPVTNEIKPPSCLFQTEFSQGILLSSSHRLFEDQRFGSSLFKMSSEMHSLHNHLQSPWSTSFVPEKRNKNVNQSTKRKIQSSLSSASPSKATKS
notes: Untagged endogenous Obi1 of HeLa S3 or U2OS cells, co-purified with tagged baits or acting on transfected ORC subunits; also called RNF219; Obi1/RFN219
binding result [1]: binds | ubiquitination of Flag tagged ORC subunits (HA-ubiquitin adducts after anti-Flag IP) [2]: OC1, ORC3 and ORC5 are ubiquitinated in presence of Obi1 | poly-ubiquitination of Flag ORC3 after siRNA knockdown of Obi1 [3]: cells that does not express Obi1 are not able to poly-ubiquitinate either ORC3 or ORC5 | ubiquitination of Flag tagged ORC subunits (HA-ubiquitin adducts after anti-Flag IP) [3]: OC1, ORC3 and ORC5 are ubiquitinated in presence of Obi1, and in particular that ORC3 and ORC5 show strong polyubiquitylation | poly-ubiquitination of Flag ORC5 after siRNA knockdown of Obi1 [4]: cells that does not express Obi1 are not able to poly-ubiquitinate either ORC3 or ORC5 | ubiquitination of Flag tagged ORC subunits (HA-ubiquitin adducts after anti-Flag IP) [4]: OC1, ORC3 and ORC5 are ubiquitinated in presence of Obi1, and in particular that ORC3 and ORC5 show strong polyubiquitylation

B2: Myc-tagged mutated Obi1 (truncated Obi1 protein of the Meier-Gorlin patient) (other)
chain: MAQTVQNVTLSLTLPITCHICLGKVRQPVICINNHVFCSICIDLWLKNNSQCPACRVPITPENPCKEIIGGTSESEPMLSHTVRKHLRKTRLELLHKEYEDEIDCLQKEVEELKSKNLSLESQIKTILDPLTLVQGNQNEDKHLVTDNPSKINPETVAEWKKKLRTANEIYEKVKDDVDKLKEANKKLKLENGGLVRENLRLKAEVDNRSPQKFGRFAVAALQSKVEQYERETNRLKKALERSDKYIEELESQVAQLKNSSEEKEAMNSICQTALSADGKGSKGSEEDVVSKNQGDSARKQPGSSTSSSSHLAKPSSSRLCDTSSARQESTSKADLNCSKNKDLYQEQVEVMLDVTDTSMDTYLEREWGNKPSDCVPYKDEELYDLPAPCTPLSLSCLQLSTPENRESSVVQAGGSKKHSNHLRKLVFDDFCDSSNVSNKDSSEDDISRSENEKKSVFFFPKDRILGLLFHKLCPKLRF
notes: also called C.1370_1371delAA,P.GLU457VALFSX24; not shown: Myc tag
binding result [5]: no binding
